Results on 34 sequences are retold here after the NTF2 design screens of Basanta et al. (2020).

This series can be described thus: protease stability score; higher = more stable; yeast display proteolysis, trypsin and chymotrypsin.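 Note: relative to predicted unfolded state with 0 unfolded-like and 1 meaning tenfold more protease.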
For the sequence “SEEERDTIEFARLWLENYLTGDEETMKELADPRTLSTFRFENHHLHLHGMHLHFTWLHQIRIRHFQPREVSVVNGKTTIDGEYHGEVGDKSHTTRVIIRLEIVNGKIKSVEIEVK”, the protease stability score was 1.07.
Regarding “SEEERDVKEVLKLIFEHFLTGDWDWLSEMMDPHARSDINGVERHGRDDLKEMYEAIIRKLGADHIRVDTVRVDLFDGRLIVEIHTRNHVGDKEFRVINIFIMRKINGRWHVESVLLHIE”, the protease stability score was 1.56.
As for “SEEERDVRHVFEVFERSMNTGDEKKIEDRLDPNVRIIIGDKRVHGMHWVSKVIVEMRTHFILRRIRIIGDKADIDGELELRAEGHHIHTHVIIVVHKINGRWYIEEIEIR”, the protease stability score amounted to 1.69.
On to “SEEEREAQTFYEEWRENFRTGDFDRLHELMDPNARIHQGDKLIIGRQLLEHWRHRFKNIRVDFDLKHIEVQGEKIILRLHFEISIDGRTEHYDMIMIVHKVDGVWIVKSFTIK”, for which the protease stability score was 1.43.
For the sequence “SEEEREDEEMFRKLWEAYKTGDEKTLSELVDPNARLRFENREFVGRESIKEFYRRIREKFKGIRIEDVHLRDRKEQGEFIHIDIEINRFVGDKYENVKVEIVLLKFDGRWIIHEIRIK”, the protease stability score turned out to be 2.69.
In the case of “SEEEREIREIMKRFVQSFYTGDEHSLKKLLDPNVRHEFNGKEEHGWHRVWEDLAFFLRHIRIKHVVLRDVRVQGDKVHAHVEIHEEWDGRERDVEVHMRLEIVDGVVKSVKIEIQ” it was 1.43; in that of “SEEERESEEFWKHLRDVTRTGDFDSLSKLVDPEVRLEWNGRHFIGREHLAELVIDMLNRIDHVELRLHSYRLQGNYLHLRTILIIRINGQQITHDTRITFIKVDGRWIIESKHVH”, 0.869.
With “SEEERESKEATKLHLDALRTGNEELLRHLFDPDVKVDVNGKHLHGWKLLTEVLQRMGVKHVELTDFRVYDGRIDLREKWDVDGKEIEVFIHARKFNGQWHTESIHIK”, the protease stability score came to 1.15.
As to “SEEERETKLMDEIYQRLFKTGDEHKFLRLADPHAKFHFDGREDHGMHNSTRIWKKLNDILGLDNIRFHVRDWTVFDGVAHVDGKLVINGKEIEVKLHVVVVNGRVKSVSIEHE”, the protease stability score was 0.924.
Under “SEEERETRKIFEDLLKTMETGDWRHLHRLIDPNARLIVNGQEFHGREDLIRLLEQLRIRSMRITDVRNQGNKSHVDGTVEGEWNGRTDNNRTEVHLVVVDGVLKHVEFHLH” stands 1.47; under “SEEERFVEEMLRHFLTNFLTGDWDKVAKLADPDTRSLIGDKHSHGRERVIDVLTYVVEEWRWKEFRVHRTTSIGEKAHSDTETDGNYNGVDVRSRSYIHFEVVNGRMSQIHLIFV”, 0.694; under “SEEERHIKEFTRRLLHVFITGDEHELKELFDPNTRSIFNGVDVHGWKEITRFIREIREKEVRIRDVKVFNGRVHLEGHSNMEWNGQERRSDVEMHFDVINGQVHEIEIRIR”, 1.17.
“SEEERHSREMMKLYYKFLETGDEEKFLSLADPDVRIVFNGRDYHGWKDMEKLFHRLLKELGVDHFHIEHVRIDIIDGVAFAFFEVSYNIDGKSLHMHYRFYVKKIDGKWHVRWIHLEVK” came in with a protease stability score of 1.59.
In the case of “SEEERHWKEFIRMMFEALKTGDETELEKNIDPNVRVHINGQELHGRETASRFMQKHEEDMGFKHFHIDHIHFQGDKIHVHGILWVNGRDIEIHIHLVIVNGRVSLVSRDIREH” it was 0.247; in that of “SEEERILEEILRRLLRLLATGDWEDLHKLFDPTVRIVFNGQLLHGWHEFIRTMHQLWVDRIRVERVRFQGDFQHYETRNDITINGVRIETESRVHVKIVDGRIKYFEFELT”, 2.53; in that of “SEEERIMEEVSNLILDILYTGDWRRFLKLADPRTRSEINGVELIGMENHFKMWEHWRIKHIDMHSHESQGDKAIAHTRHRGEINGRERDVDTNLFVLVVNGRLKQIRLEFV”, 1.25.
Under “SEEERLAEHYYRETIELITTGDWRKLLELFDPDARLVIGDKTYHGMDTIIKIWEELRMHIRDVHFHHVSVIDGRIHLDVVVDVTKNIDGVRIRTTHRVHIIMEKIDGKWFVREIRIK” stands 2.38; under “SEEERLAREISKELVEILLTGDEDRLLELADPDVRHILLFNGRDDDQHGRENMSRAEKLFREWLGVKHVDVTHVEVQGDKIHNDTVVDINGVRFEFRIIWVVVNGRVKVWRVEMR”, 1.52; under “SEEERLARVFVELLLEISKTGDERMWKWLADPHYRLIIDGVRFHGRETLEREFKRFDYIHDVRLNDMIINGEHLILDVRVHGQQGDKEINIRTFLVVLKVDGVWVLKSVHIH”, 1.49.
“SEEERLIIEVMKDFEHSHRTGDWRRILKNLDPNTRHEFNGVEFHGMEEVVRFWIELKDEIRIHHIEIESINHVGDKAHMNVRRDTEVNGKREDVRVQVDLRVINGRIKSVIIRIE” came in with a protease stability score of 0.844.
In turn, “SEEERLLHEFWERLQHSHKTGNEEEYRKNIDPHARLDIDGREMHGWENFFHFFVEMRVHDLRIEDYRVQGDKVIVHTRVDGIVNGVRTEIHSELIIRKIDGRWFIEAMTIK” had a protease stability score of 1.07.
Turning to “SEEERLMEEAMKEFVNNSLTGDFHKMSNLADPNTRIEIDGRELHGRELAEELWERIKNLTVEIKDYKVQGDKVIIYVKIHVNGREKDVILYVQKINGRWLLRHVEVR”, the protease stability score came out at 1.34.
In the case of “SEEERLTEEFLTKFEEILETGDEELLWRLIDPHARTLFDGQEFHGREDFVMIFDELVRHAGFDVRHIHSIHVQGDKIEVRSTMVVNGRNFEIRLHLRKINGRWHIEEIEIR” it was 2.7.
“SEEERLTRELVEILLELFKTGDEDKWKEMVDPNVRVELIQGEKFIIDHGWESFFRFLLELGVDHREDKRKDAVNGRVHLTGQIDINGRRIDIHLDIDVVNGKVKSIRVELR” gave a protease stability score of 0.933.
In the case of “SEEERLYEHAWKLYIHDFITGDEKSHSRLADPHTQMIIGDKLLIGREEFVKWMKHLLDQVKNITVEHVKIRHEHYQGDKAHIDVEEEIHFNGQRHKRRVILTILKVNGRWSIESVEYT” it was 0.898; in that of “SEEERMTHEATRDLIETILTGDENILRKLADPNMIINVRQGEKDIRIHGRHDYIRWVKLLGVDHVQVRDIHFQGDKATIHLEVEVNGRSINMIIIMRKVDGRWLITETREHHL”, 1.09.
Regarding “SEEERQLHEFAELIVHDLLTGNFELLSSLLDPHARMEINGKRFHGWTQILDILHRIWLHLRIRDRQVRRVEVYNGRINSRIEVDGEINGRRISLDELLILVVVDGRIRSESIHFE”, the protease stability score amounted to 1.03.
Take “SEEERQSREFFKKWIHYMLTGDEHQIHTLADPNVRVVINGKEHHGRERLYELVLEFHHRLQNATSRVHTQDSVVIDGRLELHMELRVHQGDKEDTFQIRQLVVKIDGVWHSKSFEVE”: the protease stability score turned out to be 1.61.
Under “SEEERRDEHLMRLWVHLLLTGDEDTLKKLADPDARLVVGDKTFHGMEEVSRIMHEFLRRLGIKHFHDLDFKHVRHINGVAHFNGRLHGIQGEFERNTNIEFVVVVVDGRIKSSEIHWH” stands 1.41; under “SEEERRYELFLNLLREIMETGDEHRRSNLMDPHVRFDWNGVEFHGREMLEFIIERLHKEARLESYEIHRVTLIGDKIELRVREKRRVGNKIIEWDVIIIVRKIDGKWTIEEVEIR”, 1.63.
Turning to “SEEERSAIEFITRWIQAFETGDEDTLHKLADPNMKIWINGRELIGMQRFIRELQEEMTKRGVRIHIRIEDMRVFNGRLHTDGQFKLEVNGVDVFTTTYLLINKINGKWILEHVNIN”, the protease stability score was 1.3.
In the case of “SEEERTAEKLMRDWLKNWMTGNEEIIKELADPNVKLLVGDKEMHGMEELSRFLKELRIHDSDVRDIRLKSINGVLHIESDGRLKGEFNGQHIDTRTVVRLDVHKFDGRWHLKSIEVEIR” it was 1.95; in that of “SEEERTQTLAMKIIWDVLLTGDWKELFDNMDPHARMEINGRKFHGREEIIRHLRELHNKLGIDRVESHLHSVHYVDGVIHVDIHLHYNGKDERIEIIAMKYNGRWTLTEVNYREE”, 2.13; in that of “SEEERVAIEHMRWVIRALLTGDEELLRHLFDPSTRFDFDGQHRIGMEDLVRFWRHLRVRRFEIEDERVHFQGDKIEARTEGRIQGDINGKNVEREIRVILIVMKIDGKWIIRIISHEVD”, 1.63.
